Experimental findings from patent publication US7566555B2, “Method of expressing proteins comprising non-naturally-occurring amino acids” (Riken, priority 2002, dated 2009) are described below.

The subject of one series is CHO cells. Briefly: Effect on growth of CHO cells.
The test system of series [1] is amber mutation in ras(Am). Briefly: Amber suppression of ras(Am) in CHO cells, western blotting with anti-FLAG antibody. The format is cell-based, Chinese hamster. As to conditions: for suppression efficiency (comparison): Ras and EGFR amber mutants, tetracycline 1 μg/mL.
Procedure: Transfection was carried out using 0.5 to 2 μg of DNA for each plasmid per 35 mm plate in accordance with the Lipofect AMINE 2000 (Gibco BRL) method. Opti-MEM 1 (Gibco BRL) was used for the medium. Cell extracts were prepared 24 hours after transfection and applied to SDS-PAGE followed by western blotting using anti-FLAG2 antibody (Sigma) and the ECL+ Immunodetection System (Amersham Pharmacia Biotech). Band intensity was measured using the LAS-1000 plus image analyzer (Fuji Film).
In order to analyze amber suppression, the tyrosine codon at position 32 in a synthetic ras gene truncated from the wild type c-Ha-Ras was mutated to an amber codon. In order to detect expression, a FLAG peptide tag was added to the C-terminals of the ras genes, ras(WT) and its amber mutant ras(Am), and to the C-terminal of E. coli TyrRS.
These ras gene were introduced into CHO cells, and their products were detected by western blotting of cell extracts using anti-FLAG antibody (FIG. 4A).
A further series concerns TyrRS. Briefly: Aminoacylation reaction of TyrRS variants, inorganic phosphate detected with Biomol Green. The format is biochemical, E. coli. Also on record: key: +++: the activity detected with an enzyme concentration of 0.50 μM; ++: the activity detected with an enzyme concentration of 0.25 μM; the activity detected with an enzyme concentration of 0.25 μM, although the activity is lower than that represented by “++”; −: no activity detected with an enzyme concentration of 0.25 μM. The text has this:
More preferably, a mutant TyrRS can be used in which the location corresponding to tyrosine (Y) at position 37 is substituted with valine (V), leucine (L), isoleucine (I) or alanine (A), and the location corresponding to glutamine (Q) at position 195 is substituted with alanine (A), cysteine (C), serine (S) or asparagine (N).

Consider `N[C@@H](Cc1ccc(O)c(I)c1)C(=O)O` [3-iodo-L-tyrosine, reference compound], for which the “effect on cell reproduction” value in the series on CHO cells (0.3 mM in the medium) is “hardly any effect on cell reproduction”.

B1: TetBst2: tet02 sequence 20 bases upstream from the suppressor tRNA gene, SEQ. ID NO. 32 (nucleic acid)
DNA: TCTCCCTATCAGTGATAGAGATCCGCCGACACACGTACACGTCGGAGGGGTAGCGAAGTGGCTAAACGCGGCGGACTCTAAATCCGCTCCCTTTGGGTTCGGCGGTTCGAATCCGTCCCCCTCCAGACAAGTGCGGTTTTTTTCTCCAGCTCCCG
modifications: a sequence of one of the induced expression systems prepared in Example 2 (TetBst2)
For the molecule B1, in series [1], the “suppression efficiency (comparison)” value was “lower than that of TetBst1”.

B2: TetBst1: tet02 sequence 10 bases upstream from the suppressor tRNA gene, SEQ. ID NO. 31 (nucleic acid)
DNA: TCTCCCTATCAGTGATAGAGATCCGTACACGTCGGAGGGGTAGCGAAGTGGCTAAACGCGGCGGACTCTAAATCCGCTCCCTTTGGGTTCGGCGGTTCGAATCCGTCCCCCTCCAGACAAGTGCGGTTTTTTTCTCCAGCTCCCG
modifications: a sequence of one of the induced expression systems prepared in Example 1 (TetBst1)
B2: the “suppression efficiency (comparison)” value in series [1] is reported as “higher suppression efficiency than TetBst0”.

B3: TetBst0×1: tet02 sequence immediately before the suppressor tRNA gene, SEQ. ID NO. 30, single copy (nucleic acid)
DNA: TCTCCCTATCAGTGATAGAGATCGGAGGGGTAGCGAAGTGGCTAAACGCGGCGGACTCTAAATCCGCTCCCTTTGGGTTCGGCGGTTCGAATCCGTCCCCCTCCAGACAAGTGCGGTTTTTTTCTCCAGCTCCCG
modifications: a sequence of one of the induced expression systems prepared in Example 2 (TetBst0)
notes: ID NO; 30, single copy
With B3, in series [1] (no tetracycline), the “suppression when tetracycline is not added” value is on record as “nearly complete absence of suppression”.

B4: Wild Type (Y37, Q195): TyrRS (wild type) of E. coli, SEQ. ID NO. 29 (protein, listed as Escherichia coli)
chain: MASSNLIKQLQERGLVAQVTDEEALAERLAQGPIALYCGFDPTADSLHLGHLVPLLCLKRFQQAGHKPVALVGGATGLIGDPSFKAAERKLNTEETVQEWVDKIRKQVAPFLDFDCGENSAIAANNYDWFGNMNVLTFLRDIGKHFSVNQMINKEAVKQRLNREDQGISFTEFSYNLLQGYDFACLNKQYGVVLQIGGSDQWGNITSGIDLTRRLHQNQVFGLTVPLITKADGTKFGKTEGGAVWLDPKKTSPYKFYQFWINTADADVYRFLKFFTFMSIEEINALEEEDKNSGKAPRAQYVLAEQVTRLVHGEEGLQAAKRITECLFSGSLSALSEADFEQLAQDGVPMVEMEKGADLMQALVDSELQPSRGQARKTIASNAITINGEKQSDPEYFFKEEDRLFGRFTLLRRGKKNYCLICWK
For B4, in the series with CHO cells (expression from a transiently introduced plasmid), the “effect on growth rate of CHO cells” value is on record as “hardly affect the growth rate”. Further, in the series on TyrRS (amino acid: 3-iodo-L-tyrosine), the “Activity of TyrRS variants with 3-iodo-L-tyrosine” value is recorded as “−”. Further, the “Activity of TyrRS variants with Tyrosine” value in the series with TyrRS (amino acid: Tyrosine) is “+++”.
